Reference: paper PMC5615076, “Prolonged seizure activity causes caspase dependent cleavage and dysfunction of G-protein activated inwardly rectifying potassium channels” (Scientific Reports, 2017)

Target: T1, Gβ1γ2 tagged with yellow fluorescent proteins (YFP-Gβ1 and YFP-Gγ2) (UniProt P62873 1-340; P59768 1-71)
T1 construct: G protein subunit beta-1 (Gβ1), from plasmid pcDNA3.1-YFP-G-protein Gβ1 (gift of N. Gautam); G protein subunit gamma-2 (Gγ2), from plasmid pcDNA3.1-YFP-G-protein-Gγ2 (gift of N. Gautam); Both chains co-expressed and precipitated together with anti-GFP antibodies; also called Gβγ; source: HEK293T, transfected (pcDNA3.1-YFP-G-protein Gβ1 and pcDNA3.1-YFP-G-protein-Gγ2), in lysate
Assay: co-IP; HEK293T cells co-transfected with YFP-Gβ1, YFP-Gγ2 and GIRK2A WT or Y353X (doubled plasmid for Y353X); IP 24 h after transfection with mouse anti-GFP antibodies and Protein A/G agarose; blot with anti-GIRK2 N-terminal antibodies; band ratio GIRK2A/YFP-Gβ1 normalised to GIRK2A WT
Conditions: partners not purified

B1: GIRK2A-Y353X (domain or fragment)
chain: MTMAKLTESMTNVLEGDSMDQDVESPVAIHQPKLPKQARDDLPRHISRDRTKRKIQRYVRKDGKCNVHHGNVRETYRYLTDIFTTLVDLKWRFNLLIFVMVYTVTWLFFGMIWWLIAYIRGDMDHIEDPSWTPCVTNLNGFVSAFLFSIETETTIGYGYRVITDKCPEGIILLLIQSVLGSIVNAFMVGCMFVKISQPKKRAETLVFSTHAVISMRDGKLCLMFRVGDLRNSHIVEASIRAKLIKSKQTSEGEFIPLNQSDINVGYYTGDDRLFLVSPLIISHEINQQSPFWEISKAQLPKEELEIVVILEGIVEATGMTCQARSSYITSEILWGYRFTPVLTMEDGFYEVD
notes: GIRK2A (Kir3.2, cDNA NM_010606.2) with Y353 mutated to a stop codon, so the chain ends at D352 of the 349YEVD352 motif; mimics GIRK2A cleaved by caspase-3; Untagged; made by QuikChange mutagenesis of pcDNA3-GIRK2A; also called GIRK2-Y353X; truncated GIRK2A-Y353X; source: HEK293T, transfected (FuGENE6, pcDNA3-GIRK2A Y353X, doubled amount of plasmid), in lysate
  coimmunoprecipitation, % of wild-type GIRK2A: 50 % of wild-type GIRK2A
